Experimental findings from publication PMC12746149, “Gluebodies Offer a Route To Improve Crystal Reliability and Diversity through Transferable Nanobody Mutations That Introduce Constitutive Close Contacts” (ACS Central Science, 2025) are described below.

The target of assay [1] is T1, MAGEB1 (UniProt P43366).
T1 construct: MAGEB1
In words: crystal structure; nanobody-target complex in two commercial coarse screens (192 conditions, two temperatures). The following applies: both partners purified.

Assay [2] addresses T2, MPP8 chromodomain (residues 53-117) (UniProt Q99549).
T2 construct: MPP8, the region corresponding to the chromodomain, residues 53-117, in a modified pET30 vector; not shown: His tag, N-terminal, cleaved
In words: crystal structure; MPP8 and 3A02 gluebody combined 1:1.2, complex isolated on Superdex 75 in 20 mM Hepes pH 7.5, 80 mM NaCl; vapor diffusion at 18 °C, 100 mM sodium acetate, 25% PEG 3000. The following applies: both partners purified.

The target of assay [3] is T3, truncated RECQL5 protein (11-453) (UniProt O94762).
T3 construct: RECQL5, residues 11-453, in pNIC-Bsa4; source: E. coli BL21-DE3-pRARE, purified (Ni-NTA, TEV cleavage, reverse Ni-NTA); not shown: His6, N-terminal, cleaved
T3 sequence (O94762 11-453): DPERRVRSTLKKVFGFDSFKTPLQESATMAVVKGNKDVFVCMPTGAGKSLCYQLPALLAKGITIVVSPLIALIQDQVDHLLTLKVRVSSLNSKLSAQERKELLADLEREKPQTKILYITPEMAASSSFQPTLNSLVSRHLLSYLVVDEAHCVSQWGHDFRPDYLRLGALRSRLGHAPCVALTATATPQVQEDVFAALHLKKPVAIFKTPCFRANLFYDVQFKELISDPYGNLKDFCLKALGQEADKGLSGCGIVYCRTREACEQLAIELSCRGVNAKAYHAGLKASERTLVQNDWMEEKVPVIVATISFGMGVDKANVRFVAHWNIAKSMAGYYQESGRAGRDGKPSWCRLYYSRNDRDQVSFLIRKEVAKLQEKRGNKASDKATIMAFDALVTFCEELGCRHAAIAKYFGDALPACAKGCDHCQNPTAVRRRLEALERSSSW
Nature of the assay: crystal structure; RECQL5 and nanobody mixed 1:1.5, complex isolated by SEC, Hampton Index screen; molecular replacement with PDB 5LB8 and chain A of 2X1O. The settings on record: both partners purified.

For assay [4], the target named is T1, MAGEB1.
For assay [5], the target named is T3, truncated RECQL5 protein (11-453). Nature of the assay: SEC; purified nanobody variants run with RECQL5 on size exclusion chromatography; comigration. The settings on record: both partners purified.

Like-named read-outs stand apart in the source and are kept apart here.

T1 sequence (P43366 whole entry): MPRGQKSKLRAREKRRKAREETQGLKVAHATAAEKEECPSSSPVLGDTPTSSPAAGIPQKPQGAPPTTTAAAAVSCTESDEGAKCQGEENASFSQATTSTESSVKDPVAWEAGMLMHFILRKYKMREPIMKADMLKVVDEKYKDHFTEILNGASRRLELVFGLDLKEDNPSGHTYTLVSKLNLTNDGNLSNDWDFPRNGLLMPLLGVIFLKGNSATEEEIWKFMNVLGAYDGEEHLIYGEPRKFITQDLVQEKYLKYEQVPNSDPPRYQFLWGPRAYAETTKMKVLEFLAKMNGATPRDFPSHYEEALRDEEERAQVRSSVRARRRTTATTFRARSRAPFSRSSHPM
T2 sequence (Q99549 53-117): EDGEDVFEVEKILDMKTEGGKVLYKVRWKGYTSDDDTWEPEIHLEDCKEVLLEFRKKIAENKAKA

B1: nanobody of the MAGEB1 complex (PDB 6R7T) (VHH)
VHH: QVQLQESGGGLVQPGGSLRLSCAASGFTFSTYAMSWFRQAPGKGLEWVASINSSGGGIQSYADSVKGRFTISRDNAKNTLYLQMNSLEPEDTAVYYCAAAAWRVGTYDYRGQGTQVTVSS
notes: naïve (not engineered) nanobody scaffold
Turning to B1, in assay [1], the binding result was “binds”.

B2: 3A02 gluebody (Nb 3A02 nanobody with the Gluebody mutations S7N, Q14K and T125M) (VHH)
VHH: QVQLQENGGGLVKPGGSLRLSCAASGFTLSDYVMTWVRQAPGKGPEWVSRISAGGSTRYVDSVKGRFTISRDNAKNTMYLQMNSLKPEDTAVYYCARGSTLFSTNWDYRGQGTQVMVS
notes: Nb 3A02 with three stated mutations; the mutated chain is in PDB 9H77; also called Gb; not shown: His tag, N-terminal, cleaved
As to B2, in assay [2], the binding result was “binds”.

B3: RECQL5 nanobody variant G4-043 (VHH)
VHH: QVQLVENGGGCVQATGSLRLSCAASGSIFSINRMTWYRQAPGKEREWVAAITSGGSTNYADSVKGRFTISRDSAKGTVYLQMNSLKPEDTAVYYCEAYGTYTLAPTGEGEYDDYWGQGTQVMVS
notes: the mutated chain is in PDB 7ZMS; numbers count on: IMGT numbering; G4 and G5 constructs were amplified from the synthesised DNA fragments with a different set of primers; source: E. coli KRX, purified (Ni-NTA, TEV cleavage, reverse Ni-NTA); not shown: MBP (inferred from the G3 scaffold), N-terminal, cleaved; His6 (inferred from the G3 scaffold), N-terminal, cleaved
For the molecule B3, the binding result in assay [3] is given as “binds”.

B4: RECQL5 nanobody variant G2*-011 (VHH)
VHH: QVQLVENGGGCVQAGGSLKLSCAASGSIFSINRMTWYRQAPGKEREWVAAITSGGSTNYAYSVKGRFTISRDNAKNTVYLQMNSLKPEDTAVYYCEAYGTYTLAPTGEGEYDDYWGQGTQVTVS
notes: the mutated chain is in PDB 7ZMR; source: E. coli KRX, purified (Ni-NTA, TEV cleavage, reverse Ni-NTA); not shown: MBP (from the vector pNIC-MBP2-LIC), N-terminal, cleaved; His6 (from the vector pNIC-MBP2-LIC), N-terminal, cleaved
Regarding B4, in assay [3], the binding result is given as “binds”.

B5: RECQL5 nanobody variant G3-048 (VHH)
VHH: QVQLVENGGGCVQATGSLRLSCAASGSIFSINRMTWYRQAPGKEREWVAAITSGGSTNYADSVKGRFTISRDSAKGTVYLQMNSLKPEDTAVYYCEAYGTYTLAPTGEGEYDDYWGQGTQVTVS
notes: the mutated chain is in PDB 7ZMN; numbers count on: IMGT numbering; synthesised DNA in pNIC-MBP2-LIC; no ENLYFQ tail; source: E. coli KRX, purified (Ni-NTA, TEV cleavage, reverse Ni-NTA); not shown: MBP, N-terminal, cleaved; His6, N-terminal, cleaved
Take B5: the binding result in assay [3] is reported as “binds”.

B6: RECQL5 nanobody variant G2*-006 (VHH)
VHH: QVQLVENGGGNVQAGGSLRLSCAASGSIFSINRMTWYRQAPGKEREWVAAITSGGSTNYAYSVKGRFTISRDNAKNTVYLQMNSLKPEDTAVYYCEAYGTYTLAPTGEGEYDDYWGQGTQVTVS
notes: the mutated chain is in PDB 7ZMQ; source: E. coli KRX, purified (Ni-NTA, TEV cleavage, reverse Ni-NTA); not shown: MBP (from the vector pNIC-MBP2-LIC), N-terminal, cleaved; His6 (from the vector pNIC-MBP2-LIC), N-terminal, cleaved
Take B6: in assay [3], the binding result is “binds”.

B7: RECQL5 nanobody variant G3-052 (VHH)
VHH: QVQLVENGGGCVQAGGSLRLSCAASGSIFSINRMTWYRQAPGKEREWVAAITSGGSTNYADSVKGRFTISRDSAKGTVYLYMNSLKPEDTAVYYCEAYGTYTLAPTGEGEYDDYWGQGTQVTVS
notes: the mutated chain is in PDB 7ZMO; numbers count on: IMGT numbering; synthesised DNA in pNIC-MBP2-LIC; no ENLYFQ tail; source: E. coli KRX, purified (Ni-NTA, TEV cleavage, reverse Ni-NTA); not shown: MBP, N-terminal, cleaved; His6, N-terminal, cleaved
Regarding B7, the binding result in assay [3] is on record as “binds”.

B8: YNMAGEB1A-c001 (VHH)
VHH: QVQLQESGGGLVQAGGSLRLSCAASGFTFDDYAIGWFRQVPGKEREGVSCTSSSVGSTYYADSVKGRFTITSDNAKNTVYLQMNSLKPEDTAVYYCAADSYPYGSTWCRPPFFASWGQGTQVTVS
B8: the binding result in assay [4] was “binds”.

B9: RECQL5 nanobody variant G1-001 (VHH)
VHH: QVQLQESGGGLVQAGGSLRLSCAASGSIFSINRMGWYRQAPGKQRELVAAITSGGSTNYAYSVKGRFTISRDNAKNTVYLQMNSLKPEDTAIYYCEAYGTYTLAPTGEGEYDDYWGQGTQVTVSA
notes: the mutated chain is in PDB 7ZML; numbers count on: IMGT numbering; six-residue tail left after TEV cleavage of the C-terminal 6xHis tag; vector pNIC-CTH0; source: E. coli KRX, purified (Ni-NTA, TEV cleavage, reverse Ni-NTA); not shown: His6, C-terminal, cleaved
As for B9, the binding result in assay [5] is “binds”.

B10: RECQL5 nanobody variant G2-001 (VHH)
VHH: QVQLQENGGGCVQAGGSLRLSCAASGSIFSINRMGWYRQAPGKQRELVAAITSGGSTNYAYSVKGRFTISRDNAKNTVYLQMNSLKPEDTAIYYCEAYGTYTLAPTGEGEYDDYWGQGTQVTVSA
notes: as the chain of m3 (G1-001, D69Y) with S7N:L12C; the mutated chain is in PDB 7ZMM; numbers count on: IMGT numbering; six-residue tail left after TEV cleavage of the C-terminal 6xHis tag; vector pNIC-CTH0; made by mutagenesis from G1-001; source: E. coli KRX, purified (Ni-NTA, TEV cleavage, reverse Ni-NTA); not shown: His6, C-terminal, cleaved
In the case of B10, the binding result in assay [3] was “binds”.
